Molecular target: human C1q (R&D Systems) (human) (UniProt P02745)
Assay: C1q ELISA, absorbance at 450 nm

UniProt P02745, sequence (P02745 23-245 limits assumed, chain 1 of 3): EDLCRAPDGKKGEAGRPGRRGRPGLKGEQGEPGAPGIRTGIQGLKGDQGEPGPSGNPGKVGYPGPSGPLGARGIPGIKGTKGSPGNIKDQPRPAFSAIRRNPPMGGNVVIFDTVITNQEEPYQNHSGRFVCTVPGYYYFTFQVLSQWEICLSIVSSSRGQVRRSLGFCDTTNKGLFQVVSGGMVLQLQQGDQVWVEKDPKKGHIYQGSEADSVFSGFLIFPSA
UniProt P02745, sequence (P02746 28-253 limits assumed, chain 2 of 3, further chain): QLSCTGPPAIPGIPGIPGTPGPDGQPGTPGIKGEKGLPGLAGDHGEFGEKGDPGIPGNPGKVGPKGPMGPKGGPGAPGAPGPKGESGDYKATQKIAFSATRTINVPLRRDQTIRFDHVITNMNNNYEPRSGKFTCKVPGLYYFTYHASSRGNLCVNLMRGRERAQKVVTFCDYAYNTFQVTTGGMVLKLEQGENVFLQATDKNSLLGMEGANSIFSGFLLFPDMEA
UniProt P02745, sequence (P02747 29-245 limits assumed, chain 3 of 3, further chain): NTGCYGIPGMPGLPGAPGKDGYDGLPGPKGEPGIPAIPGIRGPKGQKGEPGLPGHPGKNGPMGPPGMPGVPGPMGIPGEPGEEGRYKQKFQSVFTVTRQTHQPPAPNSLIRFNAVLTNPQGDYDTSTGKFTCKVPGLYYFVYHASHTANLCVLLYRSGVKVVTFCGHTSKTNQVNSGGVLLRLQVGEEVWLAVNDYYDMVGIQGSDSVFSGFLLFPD

dCysG1Fc (recombinant aglycosylated IgG1 Fc derivative, twelve amino acid deletion at the amino terminus of the native hinge region) (from UniProt P01857 111-330)
fold reduction of complement activity (C1q ELISA) against the glycosylated Fc fragment: 2 times

— patent US20090053246A1
